Consider one molecule from patent publication US20190015484A1, “NICOTINE-DEGRADING ENZYMES FOR TREATING NICOTINE ADDICTION AND NICOTINE POISONING” (priority 2015, published 2019).

Data set [1] in a line: NicA2 degradation of nicotine in mouse serum. The following applies: 125, 250, 500 nM nicotine, 20 nM NicA2, mouse serum, 30 min. It is filed as biochemical. The procedure:
FIGS. 5A-5D illustrate the stability of the NicA2 enzyme. FIG. 5A graphically illustrates the thermal stability of the NicA2 enzyme as a function of temperature. FIG. 5B illustrates the stability of NicA2 at 37° C. in HEPES buffer (pH=7.4) as a function of time. […] FIG. 5C illustrates the stability of NicA2 in mouse serum at 37° C. over time. FIG. 5D graphically illustrates the ability of NicA2 to degrade nicotine in mouse serum. Concentrations of 125, 250, 500 nM nicotine with and without enzyme (20 nM NicA2) were incubated in serum for 30 min. Residual nicotine remaining after this time period was measured.
As a means to test NicA2's efficiency “in vivo”, nicotine was doped with or without enzyme in serum (FIG. 5D). […] To further substantiate a conclusion that NicA2 can remove nicotine in vivo, NicA2's catabolism of nicotine was simulated based upon foregoing kinetic constants that were determined. NicA2 specificity constant is approximately 10^5 M^−1s^−1 and while clearly far from a perfect enzyme (10^8-10^9 M^−1s^−1).

The nature of data set [2]: NicA2 co-factor assay (FAD or FMN). As to conditions: 40 μM FMN or FAD, room temperature. It counts as biochemical. The method, then:
An FAD or FMN stock solution was added to nicotine HEPES solution to obtain 80 μM FAD or FMN mixed with 4 μM nicotine. 100 μL each sample was mixed with
100 μL 40 nM NicA2 and incubated at room temperature for 20 min. An additional sample without FAD or FMN was prepared at the same time as the control. The samples were analyzed as described above.

The nature of data set [3]: NicA2 stability assay in HEPES buffer at 37° C. The following applies: HEPES buffer pH=7.4. The method, then: Four μM nicotine and 40 nM NicA2 were prepared in HEPES buffer and stored at 37° C. Upon sitting for 0, 1, 3, 4, 5, 8, 12, 16, 20, or 25 days, 100 μL of each solution was extracted, mixed, incubated, quenched, analyzed as detailed, vide supra.
To test for these metrics, NicA2 was incubated at 37° C. in HEPES buffer and enzyme activity was examined at different time points.

The nature of data set [4]: In vitro NicA2 activity in rat serum at physiologically relevant nicotine levels. The following applies: for % Reduction in nicotine levels in vitro: rat serum, 37° C. It counts as biochemical. The method, then:
NicA2 was diluted in rat serum (controls: serum without NicA2) to give a final concentration of 400 nM, 200 nM, and 20 nM. Nicotine was diluted in 50 mM HEPES pH 7.5 to give final amounts of 640, […], 80, 40, 20, 10, 5 and 2.5 ng (spanning a nicotine concentration range of 3.2 μg/ml to 12.5 ng/ml). The diluted NicA2 in serum and diluted nicotine were mixed 1:1 after pre-equilibration at 37° C. and 5 min (in 200 μl total). After 4 minutes or 20 minutes, reactions were diluted and quenched by addition of 800 μl H2O+500 μl 2M NaOH/0.2M NH4OH. At the highest NicA2 concentration (400 nM) initial plasma nicotine levels of 25 and 50 ng/ml dropped to <2 ng/ml at 4 min. (Table A).

A short description of data set [5]: Temperature curve of NicA2. It is filed as biochemical. The following applies: HEPES buffer, 20-95° C. The method, then:
100 μL of each solution was mixed, incubated, quenched and then analyzed as detailed, vide supra.
The effect of higher temperatures on the enzyme's stability was also examined.

“Also recorded” adds a separate entry of the source. A value given as a limit tells only on which side of the number the result lay.

B1: NicA2: flavin-containing nicotine-degrading enzyme of Pseudomonas putida S16, amino acid sequence SEQ ID NO:1 (protein)
chain: MSDKTKTNEGFSRRSFIGSAAVVTAGVAGLGAIDAASATQKTNRASTVKGGFDYDVVVVGGGFAGATAARECGLQGYRTLLLEARSRLGGRTFTSRFAGQEIEFGGAWVHWLQPHVWAEMQRYGLGVVEDPLTNLDKTLIMYNDGSVESISPDEFGKNIRIAFEKLCHDAWEVFPRPHEPMFTERARELDKSSVLDRIKTLGLSRLQQAQINSYMALYAGETTDKFGLPGVLKLFACGGWNYDAFMDTETHYRIQGGTIGLINAMLTDSGAEVRMSVPVTAVEQVNGGVKIKTDDDEIITAGVVVMTVPLNTYKHIGFTPALSKGKQRFIKEGQLSKGAKLYVHVKQNLGRVFAFADEQQPLNWVQTHDYSDELGTILSITIARKETIDVNDRDAVTREVQKMFPGVEVLGTAAYDWTADPFSLGAWAAYGVGQLSRLKDLQAAEGRILFAGAETSNGWHANIDGAVESGLRAGREVKQLLS
modifications: His tag
For the molecule B1, the “nicotine consumed in serum” value in data set [1] was “consumed all nicotine”. Further, in data set [2], the “effect of added FMN or FAD on NicA2 activity” value is “no change in NicA2 activity; also recorded: did not affect the activity”. In data set [3], the “stability and activity in HEPES buffer” value is listed as no less than 3 weeks. Also, the “v0 over the duration of the study” value in data set [3] was “remained virtually constant”. For the same molecule, the “% Reduction in nicotine levels in vitro” value in data set [4] (20 nM NicA2, nicotine 25 ng/ml) was determined as 17%; in data set [4] (20 nM NicA2, nicotine 50 ng/ml), 8%; in data set [4] (20 nM NicA2, nicotine 100 ng/ml), 4%; in data set [4] (200 nM NicA2, nicotine 25 ng/ml) it was 100%; in data set [4] (200 nM NicA2, nicotine 50 ng/ml), 100%; in data set [4] (200 nM NicA2, nicotine 100 ng/ml) it was 72%. Besides, the “% Reduction in nicotine levels in vitro” value in data set [4] (400 nM NicA2, nicotine 25 ng/ml) was determined as 100%; in data set [4] (400 nM NicA2, nicotine 50 ng/ml) it was 100%; in data set [4] (400 nM NicA2, nicotine 100 ng/ml), 94%. This molecule showed a nicotine level remaining in data set [4] (400 nM NicA2, initial nicotine 25 and 50 ng/ml, at 4 min) of less than 2 ng/mL. The molecule also gave an optimum temperature in data set [5] of 70 °C.
